Here are results for six molecules from PMC3279587.

Assay in all cases: EMSA
A general note: Mobility shift assays separate free from complexed probe on a gel.

The target in data set [1] is T1, Sumo-Arx (full-length) (Mus musculus, UniProt O35085 1-564).
The target of data set [2] is T2, His-Arx 214-430 (Mus musculus, UniProt O35085 216-432).
Data set [3] deals with GST-Arx 286-430 (Mus musculus, UniProt O35085 288-432).
Data set [4] has as its target T3, GST-Arx 214-430 (Mus musculus, UniProt O35085 216-432).
For data set [5], the target named is T1, Sumo-Arx (full-length). This is another data set of the same source.
Data set [6] addresses GST-Arx 286-430 L343Q (Mus musculus, UniProt O35085 288-432, L345Q).
The target in data set [7] is T2, His-Arx 214-430. The source holds these as a separate data set.
The target in data set [8] is T3, GST-Arx 214-430. This is another data set of the same source.

T1 sequence (O35085 whole entry): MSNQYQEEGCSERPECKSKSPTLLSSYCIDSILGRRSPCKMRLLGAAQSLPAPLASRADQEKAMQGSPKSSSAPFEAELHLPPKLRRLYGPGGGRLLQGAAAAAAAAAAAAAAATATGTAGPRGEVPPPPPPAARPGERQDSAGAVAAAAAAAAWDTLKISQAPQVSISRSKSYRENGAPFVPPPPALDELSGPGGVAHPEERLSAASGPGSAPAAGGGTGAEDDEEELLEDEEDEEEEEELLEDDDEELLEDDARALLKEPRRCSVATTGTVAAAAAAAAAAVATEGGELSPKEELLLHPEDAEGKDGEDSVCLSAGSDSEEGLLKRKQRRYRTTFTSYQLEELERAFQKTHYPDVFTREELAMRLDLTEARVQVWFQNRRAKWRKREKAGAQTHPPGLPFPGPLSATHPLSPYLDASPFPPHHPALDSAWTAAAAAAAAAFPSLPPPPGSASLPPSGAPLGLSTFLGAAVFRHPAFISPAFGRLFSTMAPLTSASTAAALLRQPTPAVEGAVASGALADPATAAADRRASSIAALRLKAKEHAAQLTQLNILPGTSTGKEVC
Chain of GST-Arx 286-430 (O35085 288-432): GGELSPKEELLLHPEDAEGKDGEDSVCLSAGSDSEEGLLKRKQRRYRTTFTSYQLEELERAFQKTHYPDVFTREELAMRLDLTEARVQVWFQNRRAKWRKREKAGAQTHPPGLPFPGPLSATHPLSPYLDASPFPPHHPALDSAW
T2 sequence (O35085 216-432): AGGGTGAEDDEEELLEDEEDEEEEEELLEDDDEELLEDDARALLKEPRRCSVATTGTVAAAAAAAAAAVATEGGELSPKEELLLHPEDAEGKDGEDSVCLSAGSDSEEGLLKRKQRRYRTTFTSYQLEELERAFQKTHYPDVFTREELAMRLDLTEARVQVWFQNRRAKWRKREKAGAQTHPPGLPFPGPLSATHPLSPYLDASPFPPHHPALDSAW
T3 sequence (O35085 216-432): as above
Chain of GST-Arx 286-430 L343Q (O35085 288-432 L345Q): as the sequence (O35085 288-432) above, with L58Q counted along it

B1: N25 (dsDNA)
DNA 1: GTCTGGCCATTAATGATATCAATTAGC
DNA 2: GCTAATTGATATCATTAATGGCCAGAC
As to B1, the binding result in data set [1] is reported as “no binding”. Also, the binding signal in data set [2] was 46 % of strongest probe for this protein; in data set [3] it was 81.6 % of strongest probe for this protein; in data set [4], 33.6 % of strongest probe for this protein.

B2: N30 (dsDNA)
DNA 1: GTCTGGCCTCTAATTACGCCTAATTGC
DNA 2: GCAATTAGGCGTAATTAGAGGCCAGAC
Take B2: the binding signal in data set [2] is 100 % of strongest probe for this protein; in data set [5] it was 38 % of strongest probe for this protein; in data set [3], 100 % of strongest probe for this protein; in data set [4] it was 86 % of strongest probe for this protein.

B3: Lmo1 (dsDNA)
DNA 1: GTAATGAATTGATTTAATTAACAGGGGAGTCTGA
DNA 2: TCAGACTCCCCTGTTAATTAAATCAATTCATTAC
With B3, the binding result in data set [6] was “no binding”.

B4: N9 (dsDNA)
DNA 1: GTCTGGCTCCTAATTAGTTCGATTAGC
DNA 2: GCTAATCGAACTAATTAGGAGCCAGAC
Turning to B4, the binding signal in data set [2] is 97 % of strongest probe for this protein; in data set [5], 17 % of strongest probe for this protein; in data set [3] it was 95 % of strongest probe for this protein; in data set [4], 100 % of strongest probe for this protein.

B5: N2 (dsDNA)
DNA 1: GTCTGGCAATTAATATATTGCATTTGC
DNA 2: GCAAATGCAATATATTAATTGCCAGAC
Consider B5, for which the binding result in data set [7], in data set [1] and in data set [8] was “no binding” each time.

B6: N11 (dsDNA)
DNA 1: GTCTGGCAGTTAATTCGGCTTAGTAGC
DNA 2: GCTACTAAGCCGAATTAACTGCCAGAC
In the case of B6, the binding result in data set [7] and in data set [8] was “no binding” in each case. Besides, in data set [5], the binding signal was 100 % of strongest probe for this protein.
